This is an account of results in patent publication US20200231688A1 (published 2020).

Assay [1] deals with T1, soluble recombinant human IL-6 receptor (SR344) (human, UniProt P08887 20-344).
T1 construct: range 1-344; also called soluble IL-6 receptor; soluble human IL-6 receptor
T1 sequence (looked up): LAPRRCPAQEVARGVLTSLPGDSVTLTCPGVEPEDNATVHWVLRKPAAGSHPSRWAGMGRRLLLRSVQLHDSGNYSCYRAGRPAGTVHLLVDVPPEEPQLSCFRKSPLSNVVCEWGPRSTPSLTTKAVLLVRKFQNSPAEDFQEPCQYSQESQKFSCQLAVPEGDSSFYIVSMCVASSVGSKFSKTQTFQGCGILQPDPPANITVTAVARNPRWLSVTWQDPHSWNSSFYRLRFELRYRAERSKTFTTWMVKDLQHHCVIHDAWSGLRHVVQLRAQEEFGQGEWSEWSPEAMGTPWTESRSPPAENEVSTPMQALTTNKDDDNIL
The assay is described as follows: SPR Biacore T100; immobilised biotinylated SR344 as membrane-type IL-6 receptor; against TOCILIZUMAB
(In general: Surface plasmon resonance follows binding to a sensor surface in real time, without labels.)
Experimental: (§1) The binding to membrane-type IL-6 receptor was assessed by evaluating the binding to soluble human IL-6 receptor immobilized onto the sensor chip. SR344 was biotinylated by a method known to those skilled in the art. Based on the affinity between biotin and streptavidin, biotinylated soluble human IL-6 receptor was immobilized onto the sensor chip via streptavidin. All measurements were conducted at 37° C. The mobile phase buffer was 10 mM MES (pH 5.8), 150 mM NaCl, and 0.05% Tween 20. […] The dissociation rate constant (kd (1/s)) at pH 5.8 was calculated using Biacore T100 Evaluation Software (GE Healthcare) by fitting only the dissociation phase at pH 5.8. The sample concentration was 0.25 pg/ml. Binding was carried out in 10 mM MES (pH 7.4), 150 mM NaCl, and 0.05% Tween 20, and dissociation was carried out in 10 mM MES (pH 5.8), 150 mM NaCl, and 0.05% Tween 20. Likewise, the dissociation rate constant (kd (1/s)) at pH 7.4 was calculated using Biacore T100 Evaluation Software (GE Healthcare) by fitting only the dissociation phase at pH 7.4. The sample concentration was 0.5 pg/ml. Binding was carried out in 10 mM MES (pH 7.4), 150 mM NaCl, and 0.05% Tween 20, and dissociation was carried out in 10 mM MES (pH 7.4), 150 mM NaCl, and 0.05% Tween 20.

Assay [2] has as its target T1, soluble recombinant human IL-6 receptor …. As to the kind of experiment: SPR Biacore T100, 37 C; biotinylated SR344 immobilised via streptavidin as membrane-type IL-6 receptor; ratio of dissociation rates.
Experimental: as §1

B1: H3pI/L73 (antibody, human IgG1, kappa, V domains shown)
VH: QVQLQESGPGLVKPSETLSLTCAVSGHSISHDHAHSWVRQPPGEGLEWIGYISYSGITNYNPSLKGRVTISRDTSKNQFSLKLSSVTAADTAAYYCARSLARTTAMDYWGEGTLVTVSS
VL: DIQMTQSPSSLSASVGDSVTITCQASQHISSHLNWYQQKPGKAPELLIYYGSHLHSGVPSRFSGSGSGTDFTFTISSLEAEDAATYYCGQGNRLPYTFGQGTKVEIER
notes: also called H3pI-IgG1/L73-kappa
For the molecule B1, in assay [1], the “fold increase of pH dependence of the dissociation rate against TOCILIZUMAB” value is around 2.6 times.

B2: Fv3-M73 (antibody, V domains shown)
VH: QVQLQESGPGLVKPSETLSLTCAVSGHSISHDHAWSWVRQPPGEGLEWIGFISYSGITNYNPTLQGRVTISRDNSKNTLYLQMNSLRAEDTAVYYCARSLARTTAMDYWGEGTLVTVSS
VL: DIQMTQSPSSLSASVGDSVTITCQASRDISSHLNWYQQKPGKAPELLIYYGSHLLSGVPSRFSGSGSGTDFTFTISSLEAEDAATYYCGQGNRLPYTFGQGTKVEIER
notes: Fully humanized IL-6 receptor antibody; also called VH4-M73/VL1-kappa
Take B2: the “fold improvement of pH dependency of the dissociation rate against TOCILIZUMAB” value in assay [1] is around 11 times. In assay [2], the “kd(pH 5.8)/kd(pH 7.4) pH …” value turned out to be 10.9.

B3: Fv4-M73 (antibody, V domains shown)
VH: QVQLQESGPGLVKPSETLSLTCAVSGHSISHDHAWSWVRQPPGEGLEWIGFISYSGITNYNPSLQGRVTISRDNSKNTLYLQMNSLRAEDTAVYYCARSLARTTAMDYWGEGTLVTVSS
VL: DIQMTQSPSSLSASVGDSVTITCQASTDISSHLNWYQQKPGKAPELLIYYGSHLLSGVPSRFSGSGSGTDFTFTISSLEAEDAATYYCGQGNRLPYTFGQGTKVEIER
notes: Fully humanized IL-6 receptor antibody; also called VH3-M73/VL3-kappa
On to B3, for which the “fold improvement of pH dependency of the dissociation rate against TOCILIZUMAB” value in assay [1] was around 10 times. Also, in assay [2], the “kd(pH 5.8)/kd(pH 7.4) pH …” value turned out to be 10.1.

B4: TOCILIZUMAB (antibody, human IgG1, kappa)
heavy: not shown
light: not shown
notes: Humanized anti-IL-6 receptor IgG1 antibody; H chain WT-IgG1, L chain WT-kappa; also called TOCILIZUMAB-IgG1; WT-IgG1/WT-kappa
For the molecule B4, the “kd(pH 5.8)/kd(pH 7.4) pH …” value in assay [2] was 1.
